Results on one protein are retold here after paper PMC7366381.

A word on the Km: it is the concentration of substrate that gives half-maximal velocity.

Substrate in the series: O=CO
The series can be described thus: purified protein. The note with it: 1 mM benzyl viologen, pH 7.5, 25 °C, anaerobic, buffer 50 mM phosphate or 25 mM MES/TAPS/HEPES/K acetate (Figure 3 legend).

B1: EcFDH-H (FDH) (Escherichia coli K-12) (protein)
chain: MKKVVTVCPYCASGCKINLVVDNGKIVRAEAAQGKTNQGTLCLKGYYGWDFINDTQILTPRLKTPMIRRQRGGKLEPVSWDEALNYVAERLSAIKEKYGPDAIQTTGSSRGTGNETNYVMQKFARAVIGTNNVDCCARVUHGPSVAGLHQSVGNGAMSNAINEIDNTDLVFVFGYNPADSHPIVANHVINAKRNGAKIIVCDPRKIETARIADMHIALKNGSNIALLNAMGHVIIEENLYDKAFVASRTEGFEEYRKIVEGYTPESVEDITGVSASEIRQAARMYAQAKSAAILWGMGVTQFYQGVETVRSLTSLAMLTGNLGKPHAGVNPVRGQNNVQGACDMGALPDTYPGYQYVKDPANREKFAKAWGVESLPAHTGYRISELPHRAAHGEVRAAYIMGEDPLQTDAELSAVRKAFEDLELVIVQDIFMTKTASAADVILPSTSWGEHEGVFTAADRGFQRFFKAVEPKWDLKTDWQIISEIATRMGYPMHYNNTQEIWDELRHLCPDFYGATYEKMGELGFIQWPCRDTSDADQGTSYLFKEKFDTPNGLAQFFTCDWVAPIDKLTDEYPMVLSTVREVGHYSCRSMTGNCAALAALADEPGYAQINTEDAKRLGIEDEALVWVHSRKGKIITRAQVSDRPNKGAIYMTYQWWIGACNELVTENLSPITKTPEYKYCAVRVEPIADQRAAEQYVIDEYNKLKTRLREAALA
On to B1, for which the Km worked out at 158 ± 8 µM (labelled compound) and 58 ± 8 µM (two highest formate points neglected in fit).
